Test results taken from paper PMC11192940 (2024).

Biological target: GST-Rheb protein (UniProt Q15382 1-169)
Assay: BLI

Sequence of GST-Rheb protein (Q15382 1-169): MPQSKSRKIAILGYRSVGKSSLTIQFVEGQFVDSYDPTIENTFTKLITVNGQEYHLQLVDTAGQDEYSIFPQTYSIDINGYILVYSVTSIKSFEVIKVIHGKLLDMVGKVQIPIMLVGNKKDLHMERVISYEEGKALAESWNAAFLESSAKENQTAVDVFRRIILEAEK

B1: His-IL-37d, recombinant human IL-37d protein with a TAT peptide (pET-22b-TAT-his-IL-37d; mature IL-37d 21–197aa) (other)
chain: YGRKKRRQRRREPQCCLEGPKVKNLNPKKFSIHDQDHKVLVLDSGNLIAVPDKNYIRPEIFFALASSLSSASAEKGSPILLGVSKGEFCLYCDKDKGQSHPSLQLKKEKLMKLAAQKESARRPFIFYRAQVGSWNMLESAAHPGWFICTSCNCNEPVGVTDKFENRKHIEFSFQPVCKAEMSPSEVSD
Q: With B1 as the binder, how does the koff read?
A: 0.00194 s⁻¹
